Measured values published in IntAct's records for PubMed 31515488.

B1: Peroxisomal bifunctional enzyme (Homo sapiens), Q08426 (parent)
chain: MAEYTRLHNALALIRLRNPPVNAISTTLLRDIKEGLQKAVIDHTIKAIVICGAEGKFSAGADIRGFSAPRTFGLTLGHVVDEIQRNEKPVVAAIQGMAFGGGLELALGCHYRIAHAEAQVGLPEVTLGLLPGARGTQLLPRLTGVPAALDLITSGRRILADEALKLGILDKVVNSDPVEEAIRFAQRVSDQPLESRRLCNKPIQSLPNMDSIFSEALLKMRRQHPGCLAQEACVRAVQAAVQYPYEVGIKKEEELFLYLLQSGQARALQYAFFAERKANKWSTPSGASWKTASARPVSSVGVVGLGTMGRGIVISFARARIPVIAVDSDKNQLATANKMITSVLEKEASKMQQSGHPWSGPKPRLTSSVKELGGVDLVIEAVFEEMSLKKQVFAELSAVCKPEAFLCTNTSALDVDEIASSTDRPHLVIGTHFFSPAHVMKLLEVIPSQYSSPTTIATVMNLSKKIKKIGVVVGNCFGFVGNRMLNPYYNQAYFLLEEGSKPEEVDQVLEEFGFKMGPFRVSDLAGLDVGWKSRKGQGLTGPTLLPGTPARKRGNRRYCPIPDVLCELGRFGQKTGKGWYQYDKPLGRIHKPDPWLSKFLSRYRKTHHIEPRTISQDEILERCLYSLINEAFRILGEGIAASPEHIDVVYLHGYGWPRHKGGPMFYASTVGLPTVLEKLQKYYRQNPDIPQLEPSDYLKKLASQGNPPLKEWQSLAGSPSSKL
B2: Maspardin (Homo sapiens), Q9NZD8 (parent)
chain: MGEIKVSPDYNWFRGTVPLKKIIVDDDDSKIWSLYDAGPRSIRCPLIFLPPVSGTADVFFRQILALTGWGYRVIALQYPVYWDHLEFCDGFRKLLDHLQLDKVHLFGASLGGFLAQKFAEYTHKSPRVHSLILCNSFSDTSIFNQTWTANSFWLMPAFMLKKIVLGNFSSGPVDPMMADAIDFMVDRLESLGQSELASRLTLNCQNSYVEPHKIRDIPVTIMDVFDQSALSTEAKEEMYKLYPNARRAHLKTGGNFPYLCRSAEVNLYVQIHLLQFHGTKYAAIDPSMVSAEELEVQKGSLGISQEEQ
B3: Cytochrome P450 4F12 (Homo sapiens), Q9HCS2 (parent)
chain: MSLLSLPWLGLRPVATSPWLLLLLVVGSWLLARILAWTYAFYNNCRRLQCFPQPPKRNWFWGHLGLITPTEEGLKNSTQMSATYSQGFTVWLGPIIPFIVLCHPDTIRSITNASAAIAPKDNLFIRFLKPWLGEGILLSGGDKWSRHRRMLTPAFHFNILKSYITIFNKSANIMLDKWQHLASEGSSRLDMFEHISLMTLDSLQKCIFSFDSHCQERPSEYIATILELSALVEKRSQHILQHMDFLYYLSHDGRRFHRACRLVHDFTDAVIRERRRTLPTQGIDDFFKDKAKSKTLDFIDVLLLSKDEDGKALSDEDIRAEADTFMFGGHDTTASGLSWVLYNLARHPEYQERCRQEVQELLKDRDPKEIEWDDLAQLPFLTMCVKESLRLHPPAPFISRCCTQDIVLPDGRVIPKGITCLIDIIGVHHNPTVWPDPEVYDPFRFDPENSKGRSPLAFIPFSAGPRNCIGQAFAMAEMKVVLALMLLHFRFLPDHTEPRRKLELIMRAEGGLWLRVEPLNVSLQ
partner: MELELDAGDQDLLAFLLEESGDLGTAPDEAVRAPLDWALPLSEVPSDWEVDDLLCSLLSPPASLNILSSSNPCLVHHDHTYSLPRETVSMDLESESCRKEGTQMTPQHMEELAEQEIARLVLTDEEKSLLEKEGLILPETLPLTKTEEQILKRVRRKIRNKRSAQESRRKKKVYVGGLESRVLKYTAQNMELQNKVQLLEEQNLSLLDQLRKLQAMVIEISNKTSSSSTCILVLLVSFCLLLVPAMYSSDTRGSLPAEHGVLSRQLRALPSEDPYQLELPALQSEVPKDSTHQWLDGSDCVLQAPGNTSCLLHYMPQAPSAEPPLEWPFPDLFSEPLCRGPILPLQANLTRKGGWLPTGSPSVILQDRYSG
B4: 2'-5'-oligoadenylate synthase 1 (Homo sapiens), P00973 (parent)
chain: MMDLRNTPAKSLDKFIEDYLLPDTCFRMQINHAIDIICGFLKERCFRGSSYPVCVSKVVKGGSSGKGTTLRGRSDADLVVFLSPLTTFQDQLNRRGEFIQEIRRQLEACQRERAFSVKFEVQAPRWGNPRALSFVLSSLQLGEGVEFDVLPAFDALGQLTGGYKPNPQIYVKLIEECTDLQKEGEFSTCFTELQRDFLKQRPTKLKSLIRLVKHWYQNCKKKLGKLPPQYALELLTVYAWERGSMKTHFNTAQGFRTVLELVINYQQLCIYWTKYYDFKNPIIEKYLRRQLTKPRPVILDPADPTGNLGGGDPKGWRQLAQEAEAWLNYPCFKNWDGSPVSSWILLAESNSADDETDDPRRYQKYGYIGTHEYPHFSHRPSTLQAASTPQAEEDWTCTIL
partner: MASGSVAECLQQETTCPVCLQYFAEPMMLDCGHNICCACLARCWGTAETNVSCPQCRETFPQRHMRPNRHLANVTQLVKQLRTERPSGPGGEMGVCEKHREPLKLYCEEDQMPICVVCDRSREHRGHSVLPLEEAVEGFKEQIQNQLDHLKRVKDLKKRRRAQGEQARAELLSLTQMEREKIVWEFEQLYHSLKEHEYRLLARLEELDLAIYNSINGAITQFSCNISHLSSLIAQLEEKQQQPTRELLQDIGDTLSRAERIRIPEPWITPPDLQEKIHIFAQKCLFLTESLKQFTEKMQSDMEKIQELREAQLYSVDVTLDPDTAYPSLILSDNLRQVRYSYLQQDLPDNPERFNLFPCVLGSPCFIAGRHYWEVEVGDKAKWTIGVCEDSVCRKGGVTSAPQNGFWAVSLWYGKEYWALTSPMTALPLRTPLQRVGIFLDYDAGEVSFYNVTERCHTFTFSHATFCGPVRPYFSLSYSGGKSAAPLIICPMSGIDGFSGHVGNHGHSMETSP

Variants of: B1
Conditions: with fund1_human FUNDC1, Q8IVP5
fund1_human FUNDC1, Q8IVP5, sequence (Q8IVP5 whole entry): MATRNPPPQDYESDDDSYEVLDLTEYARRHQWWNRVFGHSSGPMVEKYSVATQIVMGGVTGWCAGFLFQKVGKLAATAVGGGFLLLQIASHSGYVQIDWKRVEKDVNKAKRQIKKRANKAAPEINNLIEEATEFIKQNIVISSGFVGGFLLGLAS

Row | effect of a mutation on the interaction | Variant
1 | disrupting interaction strength | Q685K

Variants of: B1
Conditions: with tri41_human TRIM41, Q8WV44

Row | effect of a mutation on the interaction | Variant
2 | with no effect | Q685K

Variants of: B1
Conditions: with CCDC102B

Row | effect of a mutation on the interaction | Variant
3 | with no effect | Q685K

Variants of: B1
Conditions: with tpp2_human TPP2, P29144

Row | effect of a mutation on the interaction | Variant
4 | with no effect | R556G
5 | disrupting interaction strength | R483Q

Variants of: B1
Conditions: with actb_human ACTB

Row | effect of a mutation on the interaction | Variant
6 | with no effect | R556G
7 | disrupting interaction strength | R483Q

Variants of: B1
Conditions: with actg_human ACTG1, P63261

Row | effect of a mutation on the interaction | Variant
8 | with no effect | R556G
9 | disrupting interaction strength | R483Q

Variants of: B1
Conditions: with tnip1_human TNIP1, Q15025
tnip1_human TNIP1, Q15025, sequence (Q15025 whole entry): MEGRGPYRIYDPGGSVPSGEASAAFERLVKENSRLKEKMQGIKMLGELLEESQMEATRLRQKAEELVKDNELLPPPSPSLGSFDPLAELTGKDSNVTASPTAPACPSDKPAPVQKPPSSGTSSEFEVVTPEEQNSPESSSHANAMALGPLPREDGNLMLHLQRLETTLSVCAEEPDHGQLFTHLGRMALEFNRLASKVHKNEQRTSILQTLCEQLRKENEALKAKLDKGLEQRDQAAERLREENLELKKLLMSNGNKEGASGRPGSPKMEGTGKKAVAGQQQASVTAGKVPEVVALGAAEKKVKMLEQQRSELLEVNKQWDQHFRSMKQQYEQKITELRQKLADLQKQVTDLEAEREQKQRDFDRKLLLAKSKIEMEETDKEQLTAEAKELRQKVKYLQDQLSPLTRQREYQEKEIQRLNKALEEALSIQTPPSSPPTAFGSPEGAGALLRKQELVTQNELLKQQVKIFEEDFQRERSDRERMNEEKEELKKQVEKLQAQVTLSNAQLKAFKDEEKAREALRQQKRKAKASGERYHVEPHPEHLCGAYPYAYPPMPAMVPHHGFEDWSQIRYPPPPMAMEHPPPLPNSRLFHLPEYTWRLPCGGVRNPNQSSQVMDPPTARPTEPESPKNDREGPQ

Row | effect of a mutation on the interaction | Variant
10 | with no effect | R483Q

Variants of: B2
Conditions: with rtn4_human RTN4, Q9NQC3
rtn4_human RTN4, Q9NQC3, sequence (Q9NQC3 whole entry): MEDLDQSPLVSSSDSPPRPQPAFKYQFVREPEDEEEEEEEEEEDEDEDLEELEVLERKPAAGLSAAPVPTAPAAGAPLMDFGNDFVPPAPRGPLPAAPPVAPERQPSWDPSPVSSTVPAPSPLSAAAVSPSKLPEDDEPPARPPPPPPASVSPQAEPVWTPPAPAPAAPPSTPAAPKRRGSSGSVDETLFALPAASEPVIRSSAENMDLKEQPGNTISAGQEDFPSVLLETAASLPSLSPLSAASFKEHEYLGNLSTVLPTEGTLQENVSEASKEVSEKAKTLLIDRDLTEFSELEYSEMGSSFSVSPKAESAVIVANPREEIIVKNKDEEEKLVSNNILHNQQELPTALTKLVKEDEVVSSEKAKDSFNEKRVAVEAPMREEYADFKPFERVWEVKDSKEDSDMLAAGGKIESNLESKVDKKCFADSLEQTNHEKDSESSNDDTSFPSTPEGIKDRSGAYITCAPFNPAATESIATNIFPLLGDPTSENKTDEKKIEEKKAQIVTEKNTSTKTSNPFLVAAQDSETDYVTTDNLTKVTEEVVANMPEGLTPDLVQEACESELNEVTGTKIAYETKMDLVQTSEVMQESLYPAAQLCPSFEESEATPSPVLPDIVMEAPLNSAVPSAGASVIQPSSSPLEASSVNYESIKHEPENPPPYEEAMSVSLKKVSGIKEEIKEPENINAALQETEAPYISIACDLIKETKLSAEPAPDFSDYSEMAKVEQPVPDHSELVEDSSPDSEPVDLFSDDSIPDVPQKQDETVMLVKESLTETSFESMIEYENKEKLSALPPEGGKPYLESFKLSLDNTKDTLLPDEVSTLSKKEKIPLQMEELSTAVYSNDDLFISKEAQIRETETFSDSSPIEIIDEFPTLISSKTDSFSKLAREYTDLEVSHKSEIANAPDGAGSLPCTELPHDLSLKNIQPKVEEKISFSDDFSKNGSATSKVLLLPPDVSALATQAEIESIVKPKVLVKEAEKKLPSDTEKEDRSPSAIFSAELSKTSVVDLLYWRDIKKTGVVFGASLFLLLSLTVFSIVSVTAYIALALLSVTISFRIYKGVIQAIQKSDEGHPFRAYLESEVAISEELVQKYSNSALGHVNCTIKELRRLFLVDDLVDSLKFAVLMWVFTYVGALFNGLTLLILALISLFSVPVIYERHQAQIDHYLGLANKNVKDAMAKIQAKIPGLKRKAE

Row | effect of a mutation on the interaction | Variant
11 | with no effect | A180T

Variants of: B2
Conditions: with cryaa_human CRYAA

Row | effect of a mutation on the interaction | Variant
12 | disrupting interaction strength | A180T
13 | disrupting interaction strength | H272D

Variants of: B2
Conditions: with reep6_human REEP6, Q96HR9
reep6_human REEP6, Q96HR9, sequence (Q96HR9 whole entry): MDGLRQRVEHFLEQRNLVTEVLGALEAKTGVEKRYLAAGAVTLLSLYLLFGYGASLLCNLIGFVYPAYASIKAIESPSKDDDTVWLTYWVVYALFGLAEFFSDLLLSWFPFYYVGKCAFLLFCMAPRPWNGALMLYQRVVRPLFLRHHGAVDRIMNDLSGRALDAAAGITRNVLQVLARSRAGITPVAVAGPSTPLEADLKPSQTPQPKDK

Row | effect of a mutation on the interaction | Variant
14 | with no effect | A180T

Variants of: B2
Conditions: with traf2_human TRAF2, Q12933
traf2_human TRAF2, Q12933, sequence (Q12933 whole entry): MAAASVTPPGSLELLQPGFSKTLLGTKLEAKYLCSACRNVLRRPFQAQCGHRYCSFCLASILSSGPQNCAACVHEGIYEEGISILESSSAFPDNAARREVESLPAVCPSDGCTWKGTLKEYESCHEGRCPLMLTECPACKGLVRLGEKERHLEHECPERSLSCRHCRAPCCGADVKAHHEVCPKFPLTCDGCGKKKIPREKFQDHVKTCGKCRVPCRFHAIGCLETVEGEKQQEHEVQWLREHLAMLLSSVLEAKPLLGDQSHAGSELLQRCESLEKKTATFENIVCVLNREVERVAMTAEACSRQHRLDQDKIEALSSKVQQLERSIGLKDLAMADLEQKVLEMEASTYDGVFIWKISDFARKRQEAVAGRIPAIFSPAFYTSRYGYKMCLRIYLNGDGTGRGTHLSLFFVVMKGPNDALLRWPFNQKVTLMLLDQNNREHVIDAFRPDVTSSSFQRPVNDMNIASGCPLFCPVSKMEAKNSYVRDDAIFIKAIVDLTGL

Row | effect of a mutation on the interaction | Variant
15 | with no effect | A180T
16 | disrupting interaction strength | H272D

Variants of: B2
Conditions: with spre2_human SPRED2, Q7Z698
spre2_human SPRED2, Q7Z698, sequence (Q7Z698 whole entry): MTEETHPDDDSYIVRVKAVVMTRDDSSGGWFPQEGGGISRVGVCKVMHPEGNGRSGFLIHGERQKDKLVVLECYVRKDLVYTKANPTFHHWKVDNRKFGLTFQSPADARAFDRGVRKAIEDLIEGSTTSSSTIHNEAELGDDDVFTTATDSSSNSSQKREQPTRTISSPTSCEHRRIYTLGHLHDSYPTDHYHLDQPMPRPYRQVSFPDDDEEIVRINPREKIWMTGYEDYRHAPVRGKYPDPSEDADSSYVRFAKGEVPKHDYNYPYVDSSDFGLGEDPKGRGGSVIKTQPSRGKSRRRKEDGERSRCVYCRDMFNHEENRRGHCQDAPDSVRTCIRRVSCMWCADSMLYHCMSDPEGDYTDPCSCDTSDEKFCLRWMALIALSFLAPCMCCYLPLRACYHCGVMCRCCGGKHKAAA

Row | effect of a mutation on the interaction | Variant
17 | with no effect | A180T

Variants of: B2
Conditions: with htf4_human TCF12, Q99081
htf4_human TCF12, Q99081, sequence (Q99081 whole entry): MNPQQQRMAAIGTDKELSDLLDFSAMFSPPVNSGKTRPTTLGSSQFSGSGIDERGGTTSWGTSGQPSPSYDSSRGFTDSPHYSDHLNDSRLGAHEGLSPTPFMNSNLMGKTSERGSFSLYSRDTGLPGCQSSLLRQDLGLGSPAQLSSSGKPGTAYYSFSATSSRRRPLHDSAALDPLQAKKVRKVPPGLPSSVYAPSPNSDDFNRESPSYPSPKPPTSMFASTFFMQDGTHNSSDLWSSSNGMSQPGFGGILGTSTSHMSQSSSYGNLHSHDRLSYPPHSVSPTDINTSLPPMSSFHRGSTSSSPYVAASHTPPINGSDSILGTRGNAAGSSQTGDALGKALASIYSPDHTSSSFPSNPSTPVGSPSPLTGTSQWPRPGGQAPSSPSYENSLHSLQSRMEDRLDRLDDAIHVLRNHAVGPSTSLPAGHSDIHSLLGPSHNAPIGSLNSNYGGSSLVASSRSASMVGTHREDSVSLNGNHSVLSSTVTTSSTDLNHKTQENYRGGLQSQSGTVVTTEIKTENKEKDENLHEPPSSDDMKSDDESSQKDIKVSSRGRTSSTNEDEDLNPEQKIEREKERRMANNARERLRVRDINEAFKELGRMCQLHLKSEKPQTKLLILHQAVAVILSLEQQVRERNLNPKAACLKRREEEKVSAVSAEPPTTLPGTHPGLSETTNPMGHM

Row | effect of a mutation on the interaction | Variant
18 | with no effect | A180T
19 | disrupting interaction strength | H272D

Variants of: B2
Conditions: with atrap_human AGTRAP

Row | effect of a mutation on the interaction | Variant
20 | with no effect | A180T

Variants of: B2
Conditions: with akir2_human AKIRIN2, Q53H80
akir2_human AKIRIN2, Q53H80, sequence (Q53H80 whole entry): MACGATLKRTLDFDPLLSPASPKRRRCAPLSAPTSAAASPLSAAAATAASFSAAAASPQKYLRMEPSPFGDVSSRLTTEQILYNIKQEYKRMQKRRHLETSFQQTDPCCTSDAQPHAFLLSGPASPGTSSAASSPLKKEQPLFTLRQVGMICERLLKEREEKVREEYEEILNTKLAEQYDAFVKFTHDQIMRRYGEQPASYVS

Row | effect of a mutation on the interaction | Variant
21 | with no effect | A180T

Variants of: B3
Conditions: with creb3_human CREB3, O43889

Row | effect of a mutation on the interaction | Variant
22 | with no effect | R272Q
23 | disrupting interaction strength | R254W

Variants of: B4
Conditions: with tri27_human TRIM27, P14373

Row | effect of a mutation on the interaction | Variant
24 | disrupting interaction strength | L327P
